Where two headings read alike, the source gives them in different places.
T1: recombinant CD229 (human, UniProt Q9HBG7 48-454, limits assumed)
T1 construct: Labeled with allophycocyanin in the CAR flow cytometry assay; also called APC-labeled recombinant CD229; immobilized recombinant CD229
T1 sequence (looked up): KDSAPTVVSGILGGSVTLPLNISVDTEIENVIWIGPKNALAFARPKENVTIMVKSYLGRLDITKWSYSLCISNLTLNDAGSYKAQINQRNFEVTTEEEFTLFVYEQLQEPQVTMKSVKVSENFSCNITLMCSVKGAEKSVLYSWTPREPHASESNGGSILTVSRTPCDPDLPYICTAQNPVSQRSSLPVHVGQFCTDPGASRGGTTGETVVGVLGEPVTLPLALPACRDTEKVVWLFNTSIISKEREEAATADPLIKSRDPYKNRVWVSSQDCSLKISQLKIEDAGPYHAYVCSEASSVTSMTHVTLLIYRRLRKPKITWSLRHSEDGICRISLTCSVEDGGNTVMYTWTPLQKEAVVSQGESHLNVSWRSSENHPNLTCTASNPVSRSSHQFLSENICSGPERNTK

T2: recombinant CD229 (human, UniProt Q9HBG7 48-454)
T2 chain: T1 sequence (looked up)

B1: anti-CD229 CAR construct, Clone 1A9 (other)
chain: QITLKESGPTLVKPTQTLTLTCTFSGFSLSTSGVGVGWIRQPPGKALEWLALIYWNDDKRYSPSLKSRLTIAKDTSKNQVVLTMTNMDPVDTATYYCARMGWNDPHMVDYWGQGTLVTVSSLEGGGGSGGGGSGGGASDIQMTQSPSSLSASVGDRVTITCRASQSIGSSLHWYQQKPGKAPKFLIYDASSLESGVPSRFSGSGSGTEFTLTISSLQPDDFATYYCQQYNSYPLTFGGGTKLEIKR
notes: CAR expressed on cells; not shown: HA tag, CD8alpha hinge and transmembrane domain, 4-1BB co-stimulatory and CD3zeta signaling domains
B2: anti-CD229 antibody clone 2A2 expressed as scFv-Fc (Fc fusion)
chain: QMQLVQSGAEVKKPGSSVKVSCKASGGTFSSYAISWVRQAPGQGLEWMGGIIPIFGTANYAQKFQGRVTITADKSTSTAYMELSSLRSDDTAVYYCARDELWATNYYYMDVWGKGTLVTVSSLEGGGGSGGGGSGGGASQSALTQPRSVSGSPGQSVTISCTGTSSDVGSYNYVSWYQQSPGKAPKLMIYDVSNRPSGVSNRFSGSKSGNTASLTISGLQSEDEADYYCTSYGSYDIPVIFGGGTKLTVLG
notes: scFv fused C-terminally to an immunoglobulin Fc domain, expressed in mammalian cells; not shown: immunoglobulin Fc domain
B3: anti-CD229 CAR construct, Clone 2A2 (other)
chain: B2 chain
notes: CAR expressed on cells; also called anti-CD229 CAR clone 2A2; not shown: HA tag, CD8alpha hinge and transmembrane domain, 4-1BB co-stimulatory and CD3zeta signaling domains

Experiments:
recombinant CD229 [1] = molecular target: T1, recombinant CD229; assay: flow cytometry of 293T cells expressing the CAR, stained with APC-labeled recombinant CD229
Experimental: In the final CAR construct, the scFv can be joined directly to a 45 amino acid hinge domain, which can alter binding properties of the antibodies. […] 20 of the 23 unique scFv binders still recognized CD229 with the new C-terminal fusion partner. All 23 unique binders were cloned into the CAR vector (FIG. 7D). The second-generation CAR construct uses a CD8α hinge and transmembrane domain with a CD3ζ signaling and a 4-1BB costimulatory domain. In addition, a hemagglutinin (HA) tag was added between the scFv and hinge domains to allow the simultaneous assessment of antigen binding and surface expression (FIG. 7D).

recombinant CD229 [2] = molecular target: T1, recombinant CD229; assay: competition SPR on immobilized CD229
Excerpt: FIGS. 5A, 5B, 5C, 5D, and 5E show the binding, cross-reactivity, and selectivity of anti CD229 CAR T cells. (A) Cross-reactivity screening of 2 anti-CD229 antibody clones expressed as scFv-Fc constructs in mammalian cells by TRF assay using recombinant SLAM family members. […] (B) Cytotoxic activity of primary human T cells expressing CAR constructs based on two antibodies or GFP alone against CD229 positive myeloma cell line U266 and healthy autologous T cells as determined by flow cytometry. Anti-CD229 CARs specifically kill myeloma cells but not healthy T cells co-expressing CD229. […] (E) Competition SPR using immobilized CD229 and sequential injections of the primary antibodies followed by individual injection of antibodies to determine their ability to compete for the epitope recognized by the primary antibody. 1D5 and 2D3 occupy the same epitope space while 2A2 binds to a distinct epitope. Due to the lack of self-competition, 2A2 most likely binds to an epitope occurring twice in recombinant CD229, a tandem Ig domain-containing protein.

recombinant CD229 [3] = molecular target: T2, recombinant CD229; assay: SPR
recombinant CD229 [4] = molecular target: T2, recombinant CD229; assay: SPR

binding result (recombinant CD229 [1])	binding result (recombinant CD229 [2])	Kd (recombinant CD229 [3])	Kd (recombinant CD229 [4])	Binder
binds				B1
	binds	18.4 nM	18.4 nM	B2
binds				B3

Reference: patent US20190330338A1 (UNIVERSITY OF UTAH RESEARCH FOUNDATION, published 2019)
